Results: patent publication US20120135064A1, “CONJUGATED NANODELIVERY VEHICLES” (Northeastern University, priority 2009, published 2012)

How the values were obtained:
[1] = system: Capan-1, HPAF-II, PANC-1, MS1-VEGF and HMEC-1 cells; assay: Bevacizumab cell toxicity assay (SRB); type: cell-based; conditions: 24 h exposure; media containing or free of VEGF
Protocol: Cells were seeded at 1×10^4 cells/well in 1 ml volumes in a 48-well plate. The cells were incubated for 24 h in a 37° C. cell culture incubator set at CO2 5%. […] After 24 h of incubation the SRB assay was performed (as described in, e.g., Dandamudi et al., Biochim. Biophys. Acta 1768:427-438 (2007); Skehan et al., J. Natl. Cancer Inst. 82:1107-1112 (1990); and Kalra et al., Pharm. Res. 23:2809-2817 (2006)). Briefly, the plates were washed twice with 1 ml/well of 1×PBS. Then, […] trichloracetic acid 50% solution (TCA; […]) was added to each well and the plates were stored at 4° C. for 1 h. The plates were thoroughly washed with distilled H2O five times and then 200 μl of SRB 0.4% was added to each well The plates were stored at room temperature for 30 min and then washed 4-6 times thoroughly with acetic acid 1% to remove excess SRB and air dried. 1 ml of […] was added to each well to solubilize the SRB and fluorescence intensity was measured at excitation wavelength of 540/20 and emission wavelength of 590/20 nm using FLX 800 Fluorescence Microplate Reader (Biotech instruments Inc., Winooski, Vt.). All groups were compared with untreated cells for statistical analysis.

[2] = system: HPAF-II pancreatic tumor; assay: In vivo therapeutic study, subcutaneous HPAF-II pancreatic tumor model, tumor volume; parameters: species or system nude mice; conditions: HPAF-II tumors; injections days 1, 4, 7, 10
Protocol: Tumors were grown by subcutaneously injecting 2×10^6 HPAF-II cells in 0.1 ml of cell culture media. Daily tumor volume measurements were taken using an electronic digital caliper (Control Company, Friendswood, Tex.). The equation a^2×b×0.52 was used to calculate the tumor volume, where ‘a’ and ‘b’ corresponded to the longer and shorter diameters, respectively. […] Animals received injections of the various formulations when the tumors reached a size of about 150 mm^3; the untreated control group received no injections. […] Day 1 injection was 18 μg of 2-methoxyestradiol for both PCL formulations. Day 4, 7, and 10 injections corresponded to 24 μg of 2-methoxyestradiol for both formulations. […] The end of the study was three days after the fourth injection, at which point the mice were anesthetized with ketamine/xylazine.

In the case of “bevacizumab: anti-VEGF antibody bevacizumab (Avastin, Roche)”, the “nontoxic concentration (maximum amount of antibody without altering the growth potential of the cells)” value [1] is reported as 500 ng/mL and the “earliest day at which tumor response / significant benefit was seen” value [2] is reported as 3 days.
